Consider 1 substance from article PMC3431625.

The target in this test is Recombinant α2β1 integrin (UniProt P17301). Description: ELISA. A general note: ELISA stands for enzyme-linked immunosorbent assay.
Recombinant α2β1 integrin, sequence (P17301 30-1181, chain 1 of 2): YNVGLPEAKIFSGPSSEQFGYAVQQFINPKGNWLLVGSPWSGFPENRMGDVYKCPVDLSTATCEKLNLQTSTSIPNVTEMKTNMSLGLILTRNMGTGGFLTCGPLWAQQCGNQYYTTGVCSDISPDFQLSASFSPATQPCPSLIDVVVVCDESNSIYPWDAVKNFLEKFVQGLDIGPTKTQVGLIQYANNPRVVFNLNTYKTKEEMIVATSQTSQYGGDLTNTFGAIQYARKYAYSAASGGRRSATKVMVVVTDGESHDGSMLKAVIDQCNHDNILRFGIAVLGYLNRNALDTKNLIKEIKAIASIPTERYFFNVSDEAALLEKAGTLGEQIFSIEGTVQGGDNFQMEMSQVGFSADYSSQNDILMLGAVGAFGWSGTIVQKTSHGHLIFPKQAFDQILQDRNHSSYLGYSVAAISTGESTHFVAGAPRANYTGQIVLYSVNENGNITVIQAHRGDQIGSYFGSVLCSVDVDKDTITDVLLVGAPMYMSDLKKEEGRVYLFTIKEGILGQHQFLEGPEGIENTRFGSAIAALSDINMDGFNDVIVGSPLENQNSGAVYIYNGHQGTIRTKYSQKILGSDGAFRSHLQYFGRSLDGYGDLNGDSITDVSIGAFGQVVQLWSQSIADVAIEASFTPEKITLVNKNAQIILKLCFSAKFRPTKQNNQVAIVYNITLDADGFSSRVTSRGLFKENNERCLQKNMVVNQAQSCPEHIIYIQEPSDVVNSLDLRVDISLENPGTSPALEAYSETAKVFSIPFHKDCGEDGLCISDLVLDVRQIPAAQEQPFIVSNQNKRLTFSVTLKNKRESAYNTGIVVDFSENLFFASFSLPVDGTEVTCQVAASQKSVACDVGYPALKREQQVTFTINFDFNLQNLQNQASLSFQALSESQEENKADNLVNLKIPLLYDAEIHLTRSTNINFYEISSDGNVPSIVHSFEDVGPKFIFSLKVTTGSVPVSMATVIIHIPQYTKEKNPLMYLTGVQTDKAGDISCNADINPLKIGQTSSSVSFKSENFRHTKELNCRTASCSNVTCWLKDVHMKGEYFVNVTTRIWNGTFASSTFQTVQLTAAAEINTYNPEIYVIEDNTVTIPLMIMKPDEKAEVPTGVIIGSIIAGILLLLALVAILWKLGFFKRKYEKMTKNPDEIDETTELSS
Recombinant α2β1 integrin, sequence (P05556 21-798, chain 2 of 2, further chain): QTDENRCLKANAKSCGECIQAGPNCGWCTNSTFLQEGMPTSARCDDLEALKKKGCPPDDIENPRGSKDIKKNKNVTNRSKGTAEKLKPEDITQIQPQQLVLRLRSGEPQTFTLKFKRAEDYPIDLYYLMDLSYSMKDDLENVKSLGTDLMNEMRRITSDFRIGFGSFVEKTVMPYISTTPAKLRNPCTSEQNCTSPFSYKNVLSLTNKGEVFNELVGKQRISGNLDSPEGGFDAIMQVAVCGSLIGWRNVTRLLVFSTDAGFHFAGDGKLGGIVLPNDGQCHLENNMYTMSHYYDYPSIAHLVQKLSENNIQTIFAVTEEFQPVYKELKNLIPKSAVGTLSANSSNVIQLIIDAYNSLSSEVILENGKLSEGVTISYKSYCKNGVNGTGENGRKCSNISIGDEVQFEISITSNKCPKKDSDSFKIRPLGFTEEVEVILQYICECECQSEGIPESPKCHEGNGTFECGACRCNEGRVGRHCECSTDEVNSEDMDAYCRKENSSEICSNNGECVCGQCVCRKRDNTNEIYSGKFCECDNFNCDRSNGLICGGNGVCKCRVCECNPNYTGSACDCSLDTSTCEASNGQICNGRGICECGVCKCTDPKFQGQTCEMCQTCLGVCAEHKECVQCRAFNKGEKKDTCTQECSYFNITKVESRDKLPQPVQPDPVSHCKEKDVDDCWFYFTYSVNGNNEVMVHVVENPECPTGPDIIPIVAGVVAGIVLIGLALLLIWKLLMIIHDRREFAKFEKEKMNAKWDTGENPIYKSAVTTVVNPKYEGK

By Kd is commonly meant the concentration at which binding is half-saturated. In the case of “Biotinylated collagen type I (from UniProt P02453;P02465) (natural protein)”, the Kd amounted to 1.5 nM.
